Results as given in paper PMC9844198.

Molecular target: LD-CLIMP-63-FLAG (soluble CLIMP-63 luminal domain, C-terminal His6-FLAG tag) (human)
Test: native MS; intact protein mass LC-MS under native-like conditions; MAbPac SEC-1 column, 50 mM ammonium acetate pH 7.5, QExactive HF Orbitrap, high-mass-range mode

stoichiometry N: 3
Substance: LD-CLIMP-63-FLAG (soluble CLIMP-63 luminal domain, C-terminal His6-FLAG tag) (domain or fragment)
